Assay results reported in PMC5025603.

Substrate: CC(O)C(=O)O
Assay: cells, lysate or membranes
Details: labelled compound, KH2PO4 pH 5.0, room temperature, 10 s uptake, strain printed GLS in table, GS in text and methods, host background uptake not subtracted

B1: PAS (putative lactate transporter of P. pastoris) (Komagataella phaffii GS115) (protein)
chain: MSHSIHSAAHKSVMTDIEKQHDRIHPHDHPVTPLEKPDLSAKSIKHYFATRLSTLVPKAEDFKDKRYIFNPFMVLRELTPKNWNFFMCGFAAWTWDAVDFFSVSLNVTNIAKDLNVTTKDVTWGLTLVLMLRSVGAISFGLWADRKGRKWPFIFNMILLIVLQIGLGFVNTYKQFLGVRAVFGIAMGAVFGNASSLALDDCPPRAKGIVSGIFQQGYAFGYLLVVVFQRAITDNASKSWRALFWFSAGPPVLIILWRLVLPETDAFIAQQNLRMETSDGQTASQQFVKQGKDALRVYWLMLIYMIIMMAAFNFSSHSSQDLYPTLLTVQYEFGKDRSTVTNVVANLGAIVGGIFWGHMSNFIGRRLAVLLCCIVGGAFIYPWAFINGSGINAGAFFLQFAVQGGWGVCPVHLAEMSPPHFRAFVTGTTYQLGNLASSGSSTILADIGERFPIYDENGVRKEGVYDYAKVMAIFMGAVFAFLFIVMLLGPERRGASNLDDLQDYIDDWEQKDLDNKKGIETEFIEDVQLMEAVSNEDLSEKGNEKVEAFEGNK
Question: For B1, which Km is on record?
Answer: The Km was 157.40 ± 25.46 µM.

Question: And the Vmax?
Answer: The Vmax was 452 µmol/min/mg.
